Measured values reported in publication PMC9482650, “Quantitative fragmentomics allow affinity mapping of interactomes” (Nature Communications, 2022).

Key:
[1] = molecular target: DLG2_3, Q15700; experiment: holdup assay; design: key: below the threshold = too weak to quantify, mostly under pKd 3.1 to 4; details: plain residues with an end cap or a label only (N-terminal biotin on a linker: ado-ado)
[2] = molecular target: FRMPD4, Q14CM0; experiment: holdup assay; design: key: below the threshold = too weak to quantify, mostly under pKd 3.1 to 4; details: plain residues with an end cap or a label only (N-terminal biotin on a linker: ado-ado)
FRMPD4, Q14CM0, sequence (Q14CM0 67-160): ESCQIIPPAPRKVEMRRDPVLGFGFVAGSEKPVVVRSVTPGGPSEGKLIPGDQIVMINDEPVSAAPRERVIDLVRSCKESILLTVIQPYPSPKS

Row | Binder | pKd [1] | pKd [2]
1 | HLRQQGSVEV [EPHB6, O15197] | below the threshold | below the threshold
2 | EGGKKRESEA [APPL1, Q9UKG1] | 3.73 | below the threshold
3 | ADRDHASDQL [CTBP1, Q13363] | below the threshold | 3.93
4 | TGLWKSETTV [ADGRA2, Q96PE1] | 4.5 | below the threshold
5 | QLAEIAESGL [ITK, Q08881] | below the threshold | 3.71
6 | ASGLDKRDYV [CLDN9, O95484] | below the threshold | below the threshold
7 | VGIERETDVL [EZH1, Q92800] | below the threshold | 3.87
8 | EWTDERQSKV [GAB3, Q8WWW8] | below the threshold | below the threshold
9 | NPETRDETQL [KCNT1, Q5JUK3] | below the threshold | 4.84
10 | DHLGGGGESM [TNRC6A, Q8NDV7] | below the threshold | below the threshold
11 | FTLPAESSEI [PLEKHG7, Q6ZR37] | 3.75 | below the threshold
12 | SSGSTSSSRI [ADGRG1, Q9Y653] | 3.73 | below the threshold
13 | GSSSKEGTSV [RRBP1, Q9P2E9] | 3.9 | 3.71
14 | IPGKEFDTPL [PLCB1, Q9NQ66] | below the threshold | 4.95
15 | PKLMGVETVV [DUSP10, Q9Y6W6] | 4.21 | below the threshold
16 | PEEGKKQSQC [GAGE12J, A6NER3] | 3.61 | 3.48
17 | PDSNPEESSV [SEMA4C, Q9C0C4] | below the threshold | below the threshold
18 | NLQEHSTTSV [RSBN1, Q5VWQ0] | 4 | below the threshold
